Assay results: publication PMC5104691, “Crystal Structure of the Neuropilin-1 MAM Domain: Completing the Neuropilin-1 Ectodomain Picture” (Structure(London, England:1993), 2016)

Target: the molecule itself
Experiment: ITC; dissociation by dilution: 900 μM MAM domain in the syringe titrated into buffer (20 mM Tris pH 8.0, 100 mM NaCl), one 0.4 μL and 19 injections of 2 μL, at 15°C and 20°C; dimer or oligomer to monomers

B1: MAM domain of human neuropilin-1 (residues 628-813), wild-type glycosylated (domain or fragment, UniProt O14786 628-813, looked up)
chain: ATEKPTVIDSTIQSEFPTYGFNCEFGWGSHKTFCHWEHDNHVQLKWSVLTSKTGPIQDHTGDGNFIYSQADENQKGKVARLVSPVVYSQNSAHCMTFWYHMSGSHVGTLRVKLRYQKPEEYDQLVWMAIGHQGDHWKEGRVLLHKSLKLYQVIFEGEIGKGNLGGIAVDDISINNHISQEDCAKPA
modifications: glycosylated at serine and threonine residues upstream of the predicted MAM domain (O-linked glycosylation sites)
notes: Neuropilin-1 (NRP1), human, amino acid residues 628-813 (linker region and MAM/c domain); also called NRP1 MAM domain; NRP1 MAM; source: FreeStyle HEK293-F cells, transfected, secreted
  Kd: > 900 µM
